Drawing on patent US20040053822A1, this text covers relative binding ratio (IC50 standard peptide / IC50 test peptide), IC50 and relative binding ratio (IC50 standard/IC50 peptide) for 39 molecules.

The target in assay [1] is HLA-A*2401 (human). The assay is described as follows: inhibition of 125I-labelled standard peptide binding to purified HLA.
Assay [2] has as its target HLA-A*0201 (human). Kind of assay: inhibition of 125I-probe binding to purified HLA-A*0201. The settings on record: remark: other sources report otherwise.
The target of assay [3] is HLA-A2401 (human). The assay is described as follows: inhibition of 125I probe peptide binding to purified HLA.
The target in assay [4] is HLA-B*5101 (human). Kind of assay: competition vs 125I probe peptide, purified HLA. To be noted: remark: other sources report otherwise.
Assay [5] addresses HLA-A*0201 (human). Kind of assay: competition vs 125I probe peptide, purified HLA. The settings on record: remark: other sources report otherwise.
For assay [6], the target named is HLA-A*0301 (human). The assay is described as follows: competition with 125I probe peptide, purified HLA. The settings on record: remark: other sources report otherwise.
Assay [7] concerns the target HLA-A*1101 (human). Kind of assay: competition with 125I probe peptide, purified HLA. The settings on record: remark: other sources report otherwise.
The target of assay [8] is HLA-A*6801 (human). Kind of assay: competition with 125I probe peptide, purified HLA. The settings on record: remark: other sources report otherwise.
The target in assay [9] is HLA-A*0201 (human). Kind of assay: competition with 125I probe peptide, purified HLA. To be noted: remark: other sources report otherwise.
The target in assay [10] is HLA-B*0702 (human). The assay is described as follows: competition vs 125I probe peptide, purified HLA. The settings on record: remark: other sources report otherwise.
In assay [11] the target is HLA-A*3101 (human). The assay is described as follows: competition with 125I probe peptide, purified HLA. To be noted: remark: other sources report otherwise.
Assay [12] addresses HLA-A*3301 (human). Kind of assay: competition with 125I probe peptide, purified HLA. The settings on record: remark: other sources report otherwise.

As to NWQYFFPVIF [MAGE3 142-151 (position 142, 10 amino acids)], the relative binding ratio (IC50 standard peptide / IC50 test peptide) in assay [1] came out at 0.017.
By IC50 is commonly meant the concentration at which inhibition is half-maximal. Lower therefore signals greater potency in that assay. Turning to YLQLVFGIEV [MAGE2.157 (10-mer)], in [2], the half-maximal inhibitory concentration (IC50) is < 500 nM.
Take SYDGLLGDNQI [MAGE3 185-195 (position 185, 11 amino acids)]: in assay [1], the relative binding ratio (IC50 standard peptide / IC50 test peptide) amounted to 0.0026.
As to SYDGLLGDNQI [MAGE3 peptide, position 185, 11 amino acids], the relative binding ratio (IC50 standard/IC50 peptide) in [3] was 0.0026.
With VPISMLYIL [MAGE2.170.M5 …], the IC50 in assay [4] was found to be 70 nM.
In the case of QYFFPVIF [MAGE3 144-151 (position 144, 8 amino acids)], the relative binding ratio (IC50 standard peptide / IC50 test peptide) in [1] came out at 0.12.
As to IFATCLGL [MAGE3 peptide, position 177, 8 amino acids], in [3], the relative binding ratio (IC50 standard/IC50 peptide) stood at 0.012.
For the molecule YLQLVFGIEV [MAGE2.157 …], the IC50 in assay [5] amounted to 50 nM.
As for EMLGSVVGNW [MAGE3 peptide, position 134, 10 amino acids], in assay [3], the relative binding ratio (IC50 standard/IC50 peptide) was found to be 0.0017.
In turn, SVFSTTINK [MAGE2.69.V2K9 …] came in with an IC50 in assay [6] of 20 nM. That is a double-digit nanomolar value.
As to LVHFLLLK [MAGE2/3.116 8-mer LVHFLLLK], the IC50 in [7] amounted to 40 nM; in assay [8], 400 nM.
Regarding IFATCLGL [MAGE3 177-184 (position 177, 8 amino acids)], the relative binding ratio (IC50 standard peptide / IC50 test peptide) in assay [1] stood at 0.012.
KMVELVHFL [MAGE2.112 …] gave an IC50 in assay [5] of 9.8 nM.
In the case of YLQLVFGIEV [MAGE2.157 10-mer …], the concentration for half-maximal inhibition (IC50) in [9] came to 50 nM.
As to HFVQENYL [MAGE3 249-256 (position 249, 8 amino acids)], the relative binding ratio (IC50 standard peptide / IC50 test peptide) in assay [1] was -0.0004.
Same read-out and setting: the figure for LYIFATCLGL [MAGE3 175-184 (position 175, 10 amino acids)] is 0.048.
In turn, YPLWSQSI [MAGE3.77.I8 YPLWSQSI] gave an IC50 in [10] of 60 nM.
With LYIFATCL [MAGE3 peptide, position 175, 8 amino acids], in assay [3], the relative binding ratio (IC50 standard/IC50 peptide) was determined as 0.014.
Same read-out and setting: in the case of QYFFPVIF [MAGE3 peptide, position 144, 8 amino acids] it was 0.12.
On to NYPLWSQSY [MAGE3 76-84 (position 76, 9 amino acids)], for which the relative binding ratio (IC50 standard peptide / IC50 test peptide) in assay [1] was 0.027.
YVFPVIFSR [MAGE3.138.V2R …] came in with an IC50 in assay [11] of 6 nM.
For EMLGSVVGNW [MAGE3 134-143 (position 134, 10 amino acids)], in assay [1], the relative binding ratio (IC50 standard peptide / IC50 test peptide) was 0.0017.
Molecule YVFPVIFSK [MAGE3.138.V2 …] yielded a concentration for half-maximal inhibition (IC50) in assay [7] of 3 nM.
Consider YFFPVIFSK [MAGE3.138 9-mer …], for which the IC50 in [6] stood at 5000 nM.
For NWQYFFPVIF [MAGE3 peptide, position 142, 10 amino acids], the relative binding ratio (IC50 standard/IC50 peptide) in assay [3] worked out at 0.017.
Take TVINYTLWK [MAGE2.73.V2K9 …]: the IC50 in assay [11] came out at 9000 nM.
Consider IFSKASSSL [MAGE3 peptide, position 150, 9 amino acids], for which the relative binding ratio (IC50 standard/IC50 peptide) in [3] was found to be 0.016.
Turning to IFSKASSSL [MAGE3 150-158 (position 150, 9 amino acids)], in assay [1], the relative binding ratio (IC50 standard peptide / IC50 test peptide) stood at 0.016.
On to VFEGREDSIL [MAGE3 230-239 (position 230, 10 amino acids)], for which the relative binding ratio (IC50 standard peptide / IC50 test peptide) in [1] was -0.0005.
The same measure, in the same setting: the figure for IWEELSVL [MAGE3 221-228 (position 221, 8 amino acids)] is -0.0004.
For the molecule LLGDNQIMPK [MAGE1/3.189 10-mer …], the IC50 in [6] turned out to be 500 nM.
With SMLEVFEGR [MAGE2.226 9-mer …], the half-inhibitory concentration (IC50) in [12] turned out to be 9 nM. This counts as single-digit nanomolar.
For the molecule LYIFATCLGL [MAGE3 peptide, position 175, 10 amino acids], the relative binding ratio (IC50 standard/IC50 peptide) in assay [3] amounted to 0.048.
On to VFEGREDSI [MAGE3 230-238 (position 230, 9 amino acids)], for which the relative binding ratio (IC50 standard peptide / IC50 test peptide) in assay [1] was -0.0004.
In assay [4], VPISHLYILI [MAGE2.170.110 …] came in with an IC50 of 50 nM.
For LYIFATCL [MAGE3 175-182 (position 175, 8 amino acids)], in assay [1], the relative binding ratio (IC50 standard peptide / IC50 test peptide) amounted to 0.014.
As for LVHFLLLKY [MAGE2/3.116 9-mer …], the IC50 in [8] turned out to be 8000 nM.
For the molecule ALIETSYVK [MAGE2.277 9-mer …], the IC50 in [11] was found to be 900 nM. That is a sub-micromolar value.
For KMVELVHFL [MAGE2.112 (9-mer)], the IC50 in assay [2] was < 500 nM.
